Data reported in patent publication US20190358302A1.

Target: cation independent mannose-6-phosphate receptor (CIMPR)
Experiment: immobilized CIMPR affinity column, elution with free M6P

Substance: Fabrazyme (agalsidase beta) (from UniProt P06280 32-429) (enzyme)
- % bound to CIMPR column: 90%
